In paper PMC9215706 (Cell reports, 2022):

Target: T1, Recombinant Ubiquitin activating enzyme E1 (human) - UBA1 (human, UniProt P22314 1-1058)
T1 sequence: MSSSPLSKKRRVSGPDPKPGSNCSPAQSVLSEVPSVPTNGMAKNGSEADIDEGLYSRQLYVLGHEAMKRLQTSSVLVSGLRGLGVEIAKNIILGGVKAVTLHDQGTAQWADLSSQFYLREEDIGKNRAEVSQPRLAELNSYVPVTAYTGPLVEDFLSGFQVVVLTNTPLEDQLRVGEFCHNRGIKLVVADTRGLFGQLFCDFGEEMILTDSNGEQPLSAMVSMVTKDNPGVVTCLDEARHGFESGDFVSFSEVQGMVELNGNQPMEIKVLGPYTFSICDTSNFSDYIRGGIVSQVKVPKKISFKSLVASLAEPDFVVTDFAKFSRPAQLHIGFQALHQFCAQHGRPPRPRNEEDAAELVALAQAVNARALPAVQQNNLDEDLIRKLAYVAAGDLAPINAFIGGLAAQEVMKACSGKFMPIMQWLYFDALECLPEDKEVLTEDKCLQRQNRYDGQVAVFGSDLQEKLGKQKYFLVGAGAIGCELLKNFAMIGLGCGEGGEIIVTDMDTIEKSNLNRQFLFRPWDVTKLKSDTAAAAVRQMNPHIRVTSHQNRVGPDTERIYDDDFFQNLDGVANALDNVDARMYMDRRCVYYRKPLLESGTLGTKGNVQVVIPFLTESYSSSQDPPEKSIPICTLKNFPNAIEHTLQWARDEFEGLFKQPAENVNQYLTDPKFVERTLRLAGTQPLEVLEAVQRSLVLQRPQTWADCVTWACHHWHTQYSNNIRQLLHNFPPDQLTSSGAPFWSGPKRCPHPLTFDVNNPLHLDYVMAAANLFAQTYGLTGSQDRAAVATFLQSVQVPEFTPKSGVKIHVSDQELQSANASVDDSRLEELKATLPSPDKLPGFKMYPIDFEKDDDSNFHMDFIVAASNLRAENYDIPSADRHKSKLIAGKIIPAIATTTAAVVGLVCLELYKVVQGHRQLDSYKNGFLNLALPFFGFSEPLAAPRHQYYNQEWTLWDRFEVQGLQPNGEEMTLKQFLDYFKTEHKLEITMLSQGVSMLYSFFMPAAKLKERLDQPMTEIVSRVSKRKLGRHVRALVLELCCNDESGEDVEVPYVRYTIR
Test: in vitro oxidation and non-reducing immunoblot of a disulfide-linked complex

binding result: binds
B1: recombinant Rad6 (enzyme)
chain: MSTPARRRLMRDFKRMKEDAPPGVSASPLPDNVMVWNAMIIGPADTPYEDGTFRLLLEFDEEYPNKPPHVKFLSEMFHPNVYANGEICLDILQNRWTPTYDVASILTSIQSLFNDPNPASPANVEAATLFKDHKSQYVKRVKETVEKSWEDDMDDMDDDDDDDDDDDDDEAD
